Test results: a protein production outcome set (Wang et al. 2014)

Assay: label from the status in PepcDB records
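Also: failed if final PepcDB status was selected cloned or expressed and not failed if soluble or beyond.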

Row | Sequence | protein production
1 | MGGNETRELPIINLSDKNLKQNTELWSFTRDSVREAMEHHGWFVAEYNNFPTGLHQSILEAAKELLDLPVEIKLKNENHKAGHGYITMMSDGQPVHEGLGIDQVNDVQQCRGFSRLMWPDDHDDNDRFCETVHAYAKMQAELEQLVIRMLFESYNVEKYTEKYIGGTRYLLRLLKYRRLPNGEPNRKFISHTDKSFISILHQNHITGLMLKSEKEDVWYHFTPSPTRFVVIAGDAIMAWSNDRIKACYHKVEMESVEMRYSLGFFSFQEGMISTPEEMVDKDHPLAYNPFHHDGLLEYYETLEVHLKAHRTMTKAYCGIP | failed
2 | MSSFFSVLLVLGGLIFFHELGHYLAARVLGIGVHTFSLGFGPRIFGWRSGQTDYRLSLIPLGGYVSLAGESDDEIPEGFTKGQMFSARPAWHRLIVIAAGPVFNLLLAWFIYWGLTFVHGQFIVLPEVGKVLEGGPAAAAGVQSGDRIVAIDGVSIERWDQVSDAIAASKGAPVTLSLTRNEGQHELRIVPEHRTRKTIFGDEEDAFLIGIQASGATMTLPQTPVEAAVTGARQTWTMIAMTGKGVVKLFERVVPLDTVGGPIMIAQMVSREAKDSGITGVLALAALISINLGLLNLLPIPVLDGGHIIFLGLEMLFRRPVPQKVQEVTTRMGLVLLLGLMFLATYNDIVRIGQ | failed
3 | MVTIPIFLAIIGATMMVVVWSAKQTKSAADFYTAGGGITGTQNGWAIAGDYMSAASFLGISGIISLYGYDGFMYSVGWLVAYITVLLIVAEPCRNAGKFTLGDILSFRTEPKSVRAAAAISTVAVSTFYLTAQMVGAGKLMQLLLGIPYKTAVIGVGILMVGYVVFGGMTATTWVQIIKAGLLMSGAALLSVLVGLKSGMSPFQFFNDIATSPNIIEHVQKVVLKDPVAVAGFDYGQRFLEPGLFLKNPLDQISLGMALVLGTAGMPHILMRFFTVPTAQAARKSVIIAMFIIGSFYILTTLLGFGAAIHVTPQSIMNVDKGGNMAAMMLAQQLGGDIHPFLGDLLLAFLCAVAFATILAVVSGLVLAASAAIAHDIYVNVIKGGHADQHEQVKAARITSFVVGACGIAIGIAAEKQNVAHLVALAFAVAASGNLPVVVLSLFWKKFNTAGVIAGLVTGTVVSIALVMVSPNMTYPKKVAEDAQKVVVKLEEKQAGGAVLTEKEMKDLGKAKADYEKNKDGKSFLGLDKPLFALKNPGVVSIPLGFIAAVIAALAFPSRRSEEMFDELYVRQNTGIGIAKAVDH | failed
4 | MLFSIRNFNQGVIMAGWFELSKSSDNQFRFVLKAGNGETILTSELYTSKASAEKGIASVRSNSPQEERYEKKTASNGKFYFNLKAANHQIIGSSQMYATAQSRETGIASVKANGTSQTVKDNT | failed
5 | MTKVIVVNGPNLGRLGVRQPDVYGRQDLDTLRKLCAEWGKDLGLEVEVRQTDDEAEMVRWMHQAADEKTPVVMNPAAFTHYSYALADAAHMVIDENLPLMEVHISNPSARDEFRKRSVISPVATGTITGMGFYGYKLALDAVAHLLSE | not failed
6 | MERKGIFIKVFSYTIIVLLLLVGVTATLFAQQFVSYFRAMEAQQTVKSYQPLVELIQNSDRLDMQEVAGLFHYNNQSFEFYIEDKEGSVLYATPNADTSNSVRPDFLYVVHRDDNISIVAQSKAGVGLLYQGLTIRGIVMIAIMVVFSLLCAYIFARQMTTPIKALADSANKMANLKEVPPPLERKDELGALAHDMHSMYIRLKETIARLEDEIAREHELEETQRYFFAAASHELKTPIAAVSVLLEGMLENIGDYKDHSKYLRECIKMMDRQGKTISEILELVSLNDGRIVPIAEPLDIGRTVAELLPDFQTLAEANNQRFVTDIPAGQIVLSDPKLIQKALSNVILNAVQNTPQGGEVRIWSEPGAEKYRLSVLNMGVHIDDTALSKLFIPFYRIDQARSRKSGRSGLGLAIVQKTLDAMSLQYALENTSDGVLFWLDLPPTSTL | failed
7 | MSHAIQIREAHFPGRAPIDAYGNGGFRFADMSHRGSIICIPSGIYGIDMTGPVPTQEDISRVLEESDQIEVLLIGTGVELLRLPEELRVLLWEKRISSDTMSTGAAVRTFNVLLAEDRAVAALLFAVE | not failed
8 | MGMMSSLRRLGKRRPVLGILFVVVLSIGLVGSYAIFSTPKAPVAPSESQAQAPDANQQAEAMQKAAQEQISKLETDIANLQKDLQAKPGDIATAVKLGDSQYNLGTLYLFVNGDQEKATQTFKAAVATYQQVLKLNPAEKGINLRLAGAALYAGDSKLAEDNFQAAIKADPNDNNARMTYGMYLASMKGDYQGAIDQWQEILKHNPDKDLATQVQEMIKQAETAKQDANKSAANQPPANQPQANGGQGSGK | failed
9 | MPTFNPELHAQTLNSERAYFVQPDADPAFTPHIGALVEMLTYARLTTLQAVEGLPEDQLWATAPGFANSIGTLLAHIAAVERVYHVLSFQGRDVTPEDDGAAYWGLTMGKEGTAPARLPTLDELRAELADARAETLRVFAAKDDAWLAEPLGPGWANQHWAWFHVMEDEVNHRGQLRLLRQVLAPEEGG | not failed
10 | MSEPFSVPVTVRGYETDTQGHLNQSVYLNYAEHARWSLLQAAGIRQADLVARGVGPVALETTIRFQRELLAGDEVTVTCAFEWGTGKTFRIRQLVTKADGTVAAEIEAVGGLMDLGERRLVPDPRQRFKELAARPELFGLLEHHHHHH | failed
11 | MANLPTVLVTGASGRTGQIVYKKLKEGSDKFVAKGLVRSAQGKEKIGGEADVFIGDITDADSINPAFQGIDALVILTSAVPKMKPGFDPTKGGRPEFIFEDGQYPEQVDWIGQKNQIDAAKVAGVKHIVVVGSMGGTNPDHPLNKLGNGNILVWKRKAEQYLADSGTPYTIIRAGGLLDKEGGVRELLVGKDDELLQTDTKTVPRADVAEVCIQALLFEEAKNKAFDLGSKPEGTSTPTKDFKALFSQVTSRF | not failed
12 | MQATMTDKNTRELLLDAATTLFAEQGIAATTMAEIAASVGVNPAMIHYYFKTRDSLLDTIIEERIGRIIDMIWEPVTGEEDDPLIMVRDLVNRIVNTCETMLWLPSLWIREIVNEGGALREKMLNNIPIDKMNKFSAKIAEGQKQGVINSGIDSRLLIGSIIGLTMLPLATAKLRDQIPTMKGLSSEDIVCHVTALLFTGLTNPSNSDDIKKQRT | not failed
13 | MEAVDLAFANYAERFARSCKGDGWRRLVERAIRLYLTPVLGKKALPAINRTDVVSVFDNMPADQVANRRNVFAVLRRLFRWAVSRGDLDRSLEHHHHHH | failed
14 | MEASRFIEIGLLTRPHGLKGEVCVDYYADSPFLLEGTVYLKAGRAAPRPVKVQSMRMHKGRPLVIFEGVNDRTAAELLRGHVMLVPEDTLPELDEDEVYLFELEGISVVIDESGEHLGVIERIDTDAYQEIWVIRTPQGKEVLFPAAAPFVLDIDLDSRTARIAPPPGLLDIYLSD | failed
15 | MNNYVKVHQPLNVDLRTQKTQTKLYTVLERFYVEDRTFESISIKDLCEQARVSRATFYRHHKEIIQVIEVQILRTMQYFSLEFDQIILTKENIQRLILRTIQKNPLLFQVIFWSRAENIFIDVVSGEILRISLLKEVSFSDSKFMPNCFARMILSLAAEIQQSNKDYTNDQLVELIQEAARFLQK | not failed
16 | MNAYYIQDRLEAQSWARHYQQIAREEKEAELADDMEKGLPQHLFESLCIDHLQRHGASKKAITRAFDDDVEFQERMAEHIRYIVETIAHHQADIDSEV | failed
17 | MHTAICDELGIEFPIFAFTHCRDVVVAVSKAGGFGVLGAVGFTPEQLEIELNWIDEHIGDHPYGVDIVIPNKYEGMDSQLSADELAKTLRSMVPQEHLDFARKILADHGVPVEDADEDSLQLLGWTEATATPQVDAALKHPKMTMVANALGTPPADMIKHIHDSGRKVAALCGSPSQARKHADAGVDIIIAQGGEAGGHCGEVGSIVLWPQVVKEVAPVPVLAAGGIGSGQQIAAALALGTQGAWTGSQWLMVEEAANTAVQQAAYVKATSRDTVRSRSFTGKPARMLRNDWTEAWEQPESPKPLGMPLQYMVSGMAVKATHKYPNETVDVAFNPVGQVVGQFTKVEKTATVIERWVQEYLEATARLDALNAAASV | failed
18 | MKELIKVIAFDADDTLWSNEPFFQEVEKQYTDLLKPYGTSKEISAALFQTEMNNLQILGYGAKAFTISMVETALQISNGKIAADIIRQIVDLGKSLLKMPIELLPGVKETLKTLKETGKYKLVVATKGDLLDQENKLERSGLSPYFDHIEVMSDKTEKEYLRLLSILQIAPSELLMVGNSFKSDIQPVLSLGGYGVHIPFEVMWKHEVTETFAHERLKQVKRLDDLLSLLG | not failed
19 | MNKLNIKEYKTKAGEVRYILRGAYIGTDVLTGKQIKTDIRGRTKTGVKNELERLKNNFKKNGNTKGKESLETFEEVAESFFELYKLQRKIGSIDQMRSNLDNYTLPAFGNKRISKITTAQIQQQVIKWGKSAAAPLNGRQKRTTGQAKRYKLQFNIINRIFQHALSLGIIENNPCQSVIVPQVKVEQAKKEIKFYKKSELAKLFNYLESLKSGQWSNEYFKALLRLLVASGLRIGEAMALSWSDINFQNQTVSVSKTTVRRFQIQDTPKSNKSNRIISIDDKAIYVLKSWYFFQKKHFMKLGNPQQNLVFPKIEGGVMDYHNLIYKLNNIIKNAELPLLSFHGFRRSHASLCLNAEMSYKVIQERLGHSKLQLTMDLYSHLEPEKKNKELELFTKYANF | failed
20 | TIDLNYQNKVESILKQYYGSELSSGRASFSEGMYAVAIEPSTGKVLAMAGLKNDHGNLVDDSLGTIAKNFTPGSVVKGATLSSGWENKVLRGNEVLYDQEIANIRSWFTRGLTPISAAQALEYSSNTYMVQVALRLMGQDYNTGDALTDRGYQEAMAKLRKTYGEYGLGVSTGLDLPESEGYVPGKYSLGTTLMESFGQYDAYTPMQLGQYISTIANNGNRLAPHVVSDIYEGNDSNKFAQLVRSITPKTLNKIAISDQELAIIQEGFYNVVNSGSGYATGTSMRGNVTTISGKTGTAETFAKNVNGQTVSTYNLNAIAYDTNRKIAVAVMYPHVTTDTTKSHQLVARDMIDQYISQFTGQ | failed
21 | MGHHHHHHSHMTNTVDSLFDTGLERYKAGEPAADLIPVFKEVCDRAPKASAAWICLAWLYLLEDKPNLALKAAQKAVKINPQDPQARVNLAVAMLETGQKGLRQHIDITQQLMLVNPDWRDEIQNSIADGLSRKPDWQSLAKVKGWLFNE | not failed
22 | MECRECTNRNKLDFEFTMAFQPIVNLETQTIFAHEALVRGLNNESAQAIFQHINDSNRYLFDQSCRTTAIRLAAELHIPCFLSINFLPNAVYEPERCIRTTLEAAETYGFPIEQIIFEITESEQITDLVHLRKIVEYYRARGFKTAIDDFGAGYAGLNLLSEIQTDLIKLDMALIRGIDQDKVRQAIVKGVLQVAGELSSLVIAEGIETQAELTTLQGLGINLFQGFYFAKPTFQSLAQIPSDRFVNVA | failed
23 | MAFRMSEQPRTIKIYNLLAGTNEFIGEGDAYIPPHTGLPANSTDIAPPDIPAGFVAVFNSDESSWHLVEDHRGKTVYDVASGDALFISELGPLPENVTWLSPEGEFQKWNGTAWVKDTEAEKLFRIREAEETKNNLMQVASEHIAPLQDAADLEIATEEEISLLEAWKKYRVLLNRVDTSTAQDIEWPALP | not failed
24 | MTVANWQVRDLTLILRTGEMQSRLEQARTDFGALLPETVYFQPSAIRLGEFDDEYILTRQELVYVYLREDIARQCALRRHLPSNSSNSGIMATAIPPWLMDARRLNRVMQERCDQGGLVHYYQGPHTNQFFLAIMPSNCFVRFGTDVINNENYGFYARGGNYTEEGEDDDDEMDDEDETGGAETRDSQTGNLINYPIIALGSCHLSALEHHHHHH | not failed
